Assay results published in paper PMC4591102 (European journal of nuclear medicine and molecular imaging, 2015).
Where two headings read alike, the source gives them in different places.

Assays:
Dynamic PET = assay: Dynamic PET; design: species or system athymic nude mice; conditions: mouse, in vivo; for half-life: iv
[1] = Serum stability by radio-HPLC; type: in vitro ADME, mouse
[2] = Metabolic stability in urine by radio-HPLC; type: in vivo, ICR mice
[3] = Longitudinal static PET with ROI analysis in U87MG tumor-bearing mice; design: species or system athymic nude mice; conditions: mouse, in vivo
[4] = Ex vivo biodistribution at 4 h p.i.; design: species or system athymic nude mice; conditions: mouse, in vivo
[5] = Octanol-water partition coefficient; type: physicochemical
integrin αvβ3 = integrin αvβ3 (Homo sapiens, UniProt P05106+P06756); assay: Competitive cell binding assay with ^125I-echistatin in U87MG cells
[6] = mouse, U87MG tumor, 10 mg/kg
in vivo = conditions: both, athymic nude, mouse, tumor, 10 mg/kg, total radioactivity

## N=C(N)NCCC[C@@H]1NC(=O)[C@H](CCCCNC(=O)COCCOCCNC(=O)COCCOCCNC(=S)Nc2ccc(C[C@H]3CN(CC(=O)O)CCN(CC(=O)O)CCN3CC(=O)O)cc2)NC(=O)[C@@H](Cc2ccccc2)NC(=O)[C@H](CC(=O)O)NC(=O)CNC1=O [^64Cu-NOTA-(PEG)2-c(RGDfK), metal not drawn]
Dynamic PET
  tissue uptake: ~4 %ID/g
  half-life: 4.76 min
[1]; mouse, serum, 4 h
  fraction remaining intact in serum: > 95%
[2]; mouse, in vivo
  radioactive metabolites in urine: not observed
[3]
  tissue uptake at 0.5 h: 3.62 ± 0.21 %ID/g
[4]
  tissue uptake at 4 h: 2.36 ± 0.31 %ID/g
[5]
  logP: -2.82 ± 0.06

## N=C(N)NCCC[C@@H]1NC(=O)[C@H](CCCCNC(=S)Nc2ccc(CC3CN(CC(=O)O)CCN(CC(=O)O)CCN3CC(=O)O)cc2)NC(=O)[C@@H](Cc2ccccc2)NC(=O)[C@H](CC(=O)O)NC(=O)CNC1=O (stereo partly drawn) [NOTA-c(RGDfK)]
Integrin αvβ3
  IC50: 507 ± 62 nM

## N=C(N)NCCC[C@@H]1NC(=O)[C@H](CCCCNC(=O)[C@H]2O[C@@H](CNC(=O)[C@H]3O[C@@H](CNC(=O)[C@H]4O[C@@H](CNC(=O)[C@H]5O[C@@H](CNC(=O)CCOCCOCCOCCOCCNC(=S)Nc6ccc(C[C@H]7CN(CC(=O)O)CCN(CC(=O)O)CCN7CC(=O)O)cc6)[C@H](O)[C@@H](O)[C@H]5O)[C@H](O)[C@@H](O)[C@H]4O)[C@H](O)[C@@H](O)[C@H]3O)[C@H](O)[C@@H](O)[C@H]2O)NC(=O)[C@@H](Cc2ccccc2)NC(=O)[C@H](CC(=O)O)NC(=O)CNC1=O [^64Cu-NOTA-PEG4-SAA4-c(RGDfK), metal not drawn]
Dynamic PET; 5.5 MBq
  tissue uptake: ~4 %ID/g
  half-life: 4.07 min
[1]; 1 or 4 h incubation in mouse serum at 37°C
  fraction remaining intact in serum: > 95%
[6]
  tissue uptake at 0.5 h: 0.42 ± 0.14 %ID/g
  tissue uptake at 2 h: 0.24 ± 0.06 %ID/g
  tissue uptake at 4 h: 0.18 ± 0.03 %ID/g
[2]; urine collected 1 h after administration
  radioactive metabolites in urine: not observed
In vivo
  tissue uptake: 10 %ID/g
[3]; 5.5 MBq, U87MG tumor uptake, PET, 0.5 h p.i.
  tissue uptake at 0.5 h: 2.5 ± 0.18 %ID/g
[3]; 5.5 MBq, U87MG tumor uptake, PET, 2 h p.i., n = 3
  tissue uptake at 2 h: 1.77 ± 0.38 %ID/g
[3]; 5.5 MBq, U87MG tumor uptake, PET, 4 h p.i., n = 3
  tissue uptake at 4 h: 1.67 ± 0.38 %ID/g
[4]; 10 mg/kg, kidney uptake, ex vivo, with blocking, 4 h p.i., blocking group, c(RGDyK) 10 mg/kg
  tissue uptake at 4 h: 1.78 ± 1.04 %ID/g
[4]; 5.5 MBq, U87MG tumor uptake, ex vivo, 4 h p.i., γ-counter
  tissue uptake at 4 h: 1.14 ± 0.26 %ID/g
[4]; 5.5 MBq, kidney uptake, ex vivo, 4 h p.i., positive (unblocked) group
  tissue uptake at 4 h: 0.96 ± 0.12 %ID/g
[5]
  logP: -3.4 ± 0.05

## N=C(N)NCCC[C@@H]1NC(=O)[C@H](CCCCNC(=S)Nc2ccc(CC3CN(CC(=O)O)CCN(CC(=O)O)CCN3CC(=O)O)cc2)NC(=O)[C@@H](Cc2ccccc2)NC(=O)[C@H](CC(=O)O)NC(=O)CNC1=O (stereo partly drawn) [^64Cu-NOTA-c(RGDfK), metal not drawn]
Dynamic PET
  half-life: 2.56 min
[3]
  tissue uptake at 0.5 h: 4.78 ± 0.74 %ID/g
[4]
  tissue uptake at 4 h: 2.98 ± 0.52 %ID/g
[5]
  logP: -2.65 ± 0.01
